Assay results reported in PMC7729955 (2020).

T1: biotinylated TGPAvi (Galaxea fascicularis (coral), biotin on the Avi-tag (BirA))
T1 chain 1: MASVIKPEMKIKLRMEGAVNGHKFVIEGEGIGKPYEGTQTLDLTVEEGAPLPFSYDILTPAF
T1 chain 2: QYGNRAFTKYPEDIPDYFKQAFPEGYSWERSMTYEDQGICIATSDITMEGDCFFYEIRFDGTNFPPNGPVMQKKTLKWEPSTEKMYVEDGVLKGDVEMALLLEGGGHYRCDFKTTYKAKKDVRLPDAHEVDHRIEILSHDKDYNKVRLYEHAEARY


Tests used:
biotinylated TGPAvi [1] = biological target: T1, biotinylated TGPAvi; experiment: BLI
biotinylated TGPAvi [2] = biological target: T1, biotinylated TGPAvi; experiment: BLI

Kd (biotinylated TGPAvi [1])	koff (biotinylated TGPAvi [2])	Binder
3.3 nM	0.00066 s⁻¹	sybody 92 (VHH) VHH: QVQLVESGGGLVQAGGSLRLSCAASGFPVDTQWMHWYRQAPGKEREWVAAISSTGRSTFYADSVKGRFTISRDNAKNTVYLQMNSLKPEDTAVYYCTVYVGNRYRGQGTQVTVS
7.8 nM	0.0013 s⁻¹	sybody 66 (VHH) VHH: QVQLVESGGGLVQAGGSLRLSCAASGFPVMENSMYWYRQAPGKEREWVAAITSQGSWTWYADSVKGRFTISRDNAKNTVYLQMNSLKPEDTAVYYCHVSVGTNYTGQGTQVTVS
10.4 nM	0.0012 s⁻¹	sybody 68 (VHH) VHH: QVQLVESGGGLVQAGGSLRLSCAASGFPVNAVTMWWYRQAPGKEREWVAAIKSQGAGTWYADSVKGRFTISRDNAKNTVYLQMNSLKPEDTAVYYCHVYVGAYRYEGRGTQVTVS
4.4 nM	0.00085 s⁻¹	sybody 44 (VHH) VHH: QVQLVESGGGLVQAGGSLRLSCAASGFPVGRASMWWYRQAPGKEREWVAAISSYGWVTAYADSVKGRFTISRDNAKNTVYLQMNSLKPEDTAVYYCEVSVGTGYRGQGTQVTVS
